Measured values: PMC3539437, “Solution Structures of PPARγ2/RXRα Complexes” (PPAR Research, 2012)
Blank lines part the entries; values can stand above or below the binder they belong to.

Experiments:
[1] = molecular target: T1, HsPPARγ LBD (203–477) (human, UniProt P37231-2 203-477); experiment: co-purification (affinity chromatography, gel filtration); heterodimer partners coexpressed (E. coli BL21 (DE3) or Sf9) and copurified in two steps; conditions: partners not purified
T1 construct: Rosiglitazone was added in a 2-fold excess; also called PPAR LBD
T1 sequence (looked up): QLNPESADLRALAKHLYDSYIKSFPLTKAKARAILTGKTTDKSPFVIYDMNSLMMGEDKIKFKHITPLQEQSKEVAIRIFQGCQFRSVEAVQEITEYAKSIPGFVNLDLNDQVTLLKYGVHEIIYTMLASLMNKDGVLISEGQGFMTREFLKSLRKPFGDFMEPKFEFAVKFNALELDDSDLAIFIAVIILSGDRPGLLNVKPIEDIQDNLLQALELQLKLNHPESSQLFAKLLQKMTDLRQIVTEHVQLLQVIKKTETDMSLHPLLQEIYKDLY

[2] = molecular target: T2, Full-length PPARγ2/RXRα heterodimer (human, UniProt P37231 1-505; P19793 1-462); experiment: SAXS; complexes bound to Cyp4A1 PPRE DNA; Tris 20 mM pH 7.5, NaCl 75 mM, KCl 75 mM, MgSO4 4 mM, Glycerol 5%, Chaps 2 mM; ligands CD3254 and rosiglitazone; conditions: both partners purified
T2 construct: PPARγ2, human, residues 1-505; Retinoid X receptor alpha, human, residues 1-462; also called integral PPARγ/RXRα; full-length heterodimer
T2 sequence (looked up) 1: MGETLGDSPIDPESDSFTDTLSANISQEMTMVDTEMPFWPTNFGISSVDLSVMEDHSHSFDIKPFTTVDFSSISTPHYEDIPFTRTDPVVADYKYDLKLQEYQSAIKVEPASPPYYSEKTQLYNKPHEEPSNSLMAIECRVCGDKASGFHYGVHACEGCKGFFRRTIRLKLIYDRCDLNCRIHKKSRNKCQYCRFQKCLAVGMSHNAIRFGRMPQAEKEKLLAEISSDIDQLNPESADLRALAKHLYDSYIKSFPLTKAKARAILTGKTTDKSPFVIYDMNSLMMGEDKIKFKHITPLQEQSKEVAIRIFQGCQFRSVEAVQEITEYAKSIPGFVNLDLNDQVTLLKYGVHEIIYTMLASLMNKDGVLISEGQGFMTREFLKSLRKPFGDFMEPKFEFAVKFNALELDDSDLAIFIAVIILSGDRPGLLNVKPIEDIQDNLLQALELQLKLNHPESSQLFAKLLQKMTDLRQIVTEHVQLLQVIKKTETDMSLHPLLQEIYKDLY
T2 sequence (looked up) 2: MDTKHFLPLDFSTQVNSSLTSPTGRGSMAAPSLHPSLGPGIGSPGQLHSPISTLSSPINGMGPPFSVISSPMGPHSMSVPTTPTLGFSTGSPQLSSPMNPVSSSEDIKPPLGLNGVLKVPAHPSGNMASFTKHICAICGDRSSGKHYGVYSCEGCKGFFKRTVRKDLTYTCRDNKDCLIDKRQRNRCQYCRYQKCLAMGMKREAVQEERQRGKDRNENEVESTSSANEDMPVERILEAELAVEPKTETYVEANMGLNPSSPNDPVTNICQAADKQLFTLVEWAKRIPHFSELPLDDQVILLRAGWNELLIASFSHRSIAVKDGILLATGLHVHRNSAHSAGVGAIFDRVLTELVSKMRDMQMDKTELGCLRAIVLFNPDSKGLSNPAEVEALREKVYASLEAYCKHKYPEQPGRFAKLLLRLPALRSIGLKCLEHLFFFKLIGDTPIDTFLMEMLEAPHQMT

[3] = molecular target: T3, PPARγΔNTD/RXRαΔNTD heterodimer (human, UniProt P37231 135-505; P19793 130-462); experiment: AUC; sedimentation equilibrium at 12,000 rpm, fitted with Sedphat; TIF2 RID with PPARγΔNTD/RXRαΔNTD/DNA; conditions: both partners purified
T3 construct: PPARγ2 without its N-terminal domain, human, residues 135-505; Retinoid X receptor alpha without its N-terminal domain, human, residues 130-462; nontagged; also called PPARγ2ΔNTD/RXRαΔNTD; PPARγΔNTD/RXRΔNTD
T3 sequence (looked up) 1: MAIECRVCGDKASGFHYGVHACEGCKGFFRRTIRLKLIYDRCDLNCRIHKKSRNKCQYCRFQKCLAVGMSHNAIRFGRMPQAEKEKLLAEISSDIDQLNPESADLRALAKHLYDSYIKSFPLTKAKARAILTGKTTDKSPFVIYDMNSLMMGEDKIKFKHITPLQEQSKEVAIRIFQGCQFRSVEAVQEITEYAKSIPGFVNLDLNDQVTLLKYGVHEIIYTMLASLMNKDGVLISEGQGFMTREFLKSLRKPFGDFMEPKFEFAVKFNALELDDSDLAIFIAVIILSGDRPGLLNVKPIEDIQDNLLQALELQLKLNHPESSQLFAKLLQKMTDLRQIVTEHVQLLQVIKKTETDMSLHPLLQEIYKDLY
T3 sequence (looked up) 2: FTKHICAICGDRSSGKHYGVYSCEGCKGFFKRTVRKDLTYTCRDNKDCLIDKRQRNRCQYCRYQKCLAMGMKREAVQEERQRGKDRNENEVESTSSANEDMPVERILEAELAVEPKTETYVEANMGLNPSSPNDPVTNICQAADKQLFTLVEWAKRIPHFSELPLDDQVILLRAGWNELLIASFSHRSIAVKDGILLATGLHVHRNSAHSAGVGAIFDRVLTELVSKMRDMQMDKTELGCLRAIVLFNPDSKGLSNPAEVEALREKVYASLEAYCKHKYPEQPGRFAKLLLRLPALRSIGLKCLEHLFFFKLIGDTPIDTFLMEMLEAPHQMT

[4] = molecular target: T4, PPARγ/RXRα LBDs heterodimer (human, UniProt P37231-2 203-477; P19793 223-462); experiment: native MS; ESI-MS under nondenaturing conditions, 200 mM ammonium acetate (pH 8.0 in the methods, pH 7.4 in the legend), capillary exit 80 V; conditions: both partners purified
T4 construct: nontagged; Ligands (CD3254 for RXR and rosiglitazone for PPAR) were added in a 2-fold excess; also called PPAR/RXR LBDs; LBD dimer
T4 sequence (looked up) 1: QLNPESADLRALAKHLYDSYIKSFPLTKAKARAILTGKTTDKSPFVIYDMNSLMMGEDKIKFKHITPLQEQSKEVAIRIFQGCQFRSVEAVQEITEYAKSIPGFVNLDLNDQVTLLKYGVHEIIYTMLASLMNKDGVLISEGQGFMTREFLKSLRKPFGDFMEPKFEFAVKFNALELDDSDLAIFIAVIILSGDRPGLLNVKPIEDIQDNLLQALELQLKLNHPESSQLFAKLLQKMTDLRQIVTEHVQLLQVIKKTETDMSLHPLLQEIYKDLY
T4 sequence (looked up) 2: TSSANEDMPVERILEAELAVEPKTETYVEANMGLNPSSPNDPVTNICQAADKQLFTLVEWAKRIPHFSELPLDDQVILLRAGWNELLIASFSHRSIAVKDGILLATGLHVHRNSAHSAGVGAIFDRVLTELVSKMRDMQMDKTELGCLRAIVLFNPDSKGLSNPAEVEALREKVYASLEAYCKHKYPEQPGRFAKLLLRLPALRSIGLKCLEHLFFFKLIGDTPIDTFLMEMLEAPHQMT

[5] = molecular target: T5, HsPPARγΔNTD (135–505) (human, UniProt P37231 135-505); experiment: co-purification (affinity chromatography, gel filtration); heterodimer partners coexpressed (E. coli BL21 (DE3) or Sf9) and copurified in two steps; conditions: partners not purified
T5 construct: PPARγ2 without its N-terminal domain, human, residues 135-505 (PPARγ2 has 505 residues); Rosiglitazone was added in a 2-fold excess; also called PPARγ2ΔNTD
T5 sequence (looked up): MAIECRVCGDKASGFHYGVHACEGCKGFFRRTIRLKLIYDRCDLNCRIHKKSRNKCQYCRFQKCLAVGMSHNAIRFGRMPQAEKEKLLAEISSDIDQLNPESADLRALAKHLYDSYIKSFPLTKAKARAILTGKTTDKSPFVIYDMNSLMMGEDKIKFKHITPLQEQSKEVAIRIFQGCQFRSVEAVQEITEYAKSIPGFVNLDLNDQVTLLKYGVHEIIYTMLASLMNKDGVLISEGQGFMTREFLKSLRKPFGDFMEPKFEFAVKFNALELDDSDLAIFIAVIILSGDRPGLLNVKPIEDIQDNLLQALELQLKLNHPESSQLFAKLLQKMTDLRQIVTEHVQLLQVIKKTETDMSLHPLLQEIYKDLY

[6] = molecular target: T6, Full-length HsPPARγ2 (1–505) (human, UniProt P37231-1 1-505); experiment: SAXS; complexes bound to Cyp4A1 PPRE DNA; Tris 20 mM pH 7.5, NaCl 75 mM, KCl 75 mM, MgSO4 4 mM, Glycerol 5%, Chaps 2 mM; ligands CD3254 and rosiglitazone; conditions: both partners purified
T6 construct: PPARγ2, human, residues 1-505; Rosiglitazone was added in a 2-fold excess; also called PPARg2; full length PPARγ
T6 sequence (looked up): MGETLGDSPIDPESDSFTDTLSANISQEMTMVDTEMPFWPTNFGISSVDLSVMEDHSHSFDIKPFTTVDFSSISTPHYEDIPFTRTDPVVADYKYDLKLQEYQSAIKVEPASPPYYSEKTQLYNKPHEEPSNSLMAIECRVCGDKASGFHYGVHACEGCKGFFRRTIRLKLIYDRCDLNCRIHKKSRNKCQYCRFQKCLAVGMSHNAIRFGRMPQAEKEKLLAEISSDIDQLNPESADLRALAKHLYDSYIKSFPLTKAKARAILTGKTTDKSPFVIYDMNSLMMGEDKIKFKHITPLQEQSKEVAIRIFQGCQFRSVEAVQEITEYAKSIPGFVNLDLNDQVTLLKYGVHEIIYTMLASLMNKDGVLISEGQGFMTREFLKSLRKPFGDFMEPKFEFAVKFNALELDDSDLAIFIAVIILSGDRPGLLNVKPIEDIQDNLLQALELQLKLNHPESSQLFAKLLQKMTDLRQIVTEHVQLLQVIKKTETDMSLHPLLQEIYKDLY

binding result [1]: binds
B1: HsRXRα LBD (223–462) (domain or fragment, human, UniProt P19793 223-462, looked up)
chain: TSSANEDMPVERILEAELAVEPKTETYVEANMGLNPSSPNDPVTNICQAADKQLFTLVEWAKRIPHFSELPLDDQVILLRAGWNELLIASFSHRSIAVKDGILLATGLHVHRNSAHSAGVGAIFDRVLTELVSKMRDMQMDKTELGCLRAIVLFNPDSKGLSNPAEVEALREKVYASLEAYCKHKYPEQPGRFAKLLLRLPALRSIGLKCLEHLFFFKLIGDTPIDTFLMEMLEAPHQMT
notes: nontagged (pACYC plasmid); CD3254 was added in a 2-fold excess; also called RXR LBD

stoichiometry N [2]: 1 coactivator per receptor dimer | stoichiometry N [3]: 1 TIF2 RID per heterodimer | stoichiometry N [4]: 1 TIF2 RID per heterodimer
B2: HsTIF-2 (632–772), TIF2 receptor interacting domain (RID) (domain or fragment, human, UniProt Q15596 632-772, looked up)
chain: LHDSKGQTKLLQLLTTKSDQMEPSPLASSLSDTNKDSTGSLPGSGSTHGTSLKEKHKILHRLLQDSSSPVDLAKLTAEATGKDLSQESSSTAPGSEVTIKQEPVSPKKKENALLRYLLDKDDTKDIGLPEITPKLERLDSK
notes: TIF2 (NCoA2, p160 member), human, residues 632-772: 15 kDa fragment with the three LXXLL motifs; also called TIF2 RID; TIF-2 RID

binding result [5]: binds | binding result [6]: binds
B3: HsRXRαΔNTD (130–462) (domain or fragment, human, UniProt P19793 130-462, looked up)
chain: FTKHICAICGDRSSGKHYGVYSCEGCKGFFKRTVRKDLTYTCRDNKDCLIDKRQRNRCQYCRYQKCLAMGMKREAVQEERQRGKDRNENEVESTSSANEDMPVERILEAELAVEPKTETYVEANMGLNPSSPNDPVTNICQAADKQLFTLVEWAKRIPHFSELPLDDQVILLRAGWNELLIASFSHRSIAVKDGILLATGLHVHRNSAHSAGVGAIFDRVLTELVSKMRDMQMDKTELGCLRAIVLFNPDSKGLSNPAEVEALREKVYASLEAYCKHKYPEQPGRFAKLLLRLPALRSIGLKCLEHLFFFKLIGDTPIDTFLMEMLEAPHQMT
notes: Retinoid X receptor alpha without its N-terminal domain, human, residues 130-462; nontagged (pACYC plasmid); CD3254 was added in a 2-fold excess; also called RXRΔNTD
